Changes are numbered by the printed parent chain. One block for each binder: values may come before it.
Legend:
[1] = target: T1, Ubiquitin Specific Peptidase 11 (USP11) (human, UniProt P51784 1-963, biotin (biotinylated USP11 in the yeast display assays)); assay: SPR
[2] = target: T1, Ubiquitin Specific Peptidase 11 (USP11); assay: SPR; remark: listed apart in the source

T1 sequence (P51784 whole entry): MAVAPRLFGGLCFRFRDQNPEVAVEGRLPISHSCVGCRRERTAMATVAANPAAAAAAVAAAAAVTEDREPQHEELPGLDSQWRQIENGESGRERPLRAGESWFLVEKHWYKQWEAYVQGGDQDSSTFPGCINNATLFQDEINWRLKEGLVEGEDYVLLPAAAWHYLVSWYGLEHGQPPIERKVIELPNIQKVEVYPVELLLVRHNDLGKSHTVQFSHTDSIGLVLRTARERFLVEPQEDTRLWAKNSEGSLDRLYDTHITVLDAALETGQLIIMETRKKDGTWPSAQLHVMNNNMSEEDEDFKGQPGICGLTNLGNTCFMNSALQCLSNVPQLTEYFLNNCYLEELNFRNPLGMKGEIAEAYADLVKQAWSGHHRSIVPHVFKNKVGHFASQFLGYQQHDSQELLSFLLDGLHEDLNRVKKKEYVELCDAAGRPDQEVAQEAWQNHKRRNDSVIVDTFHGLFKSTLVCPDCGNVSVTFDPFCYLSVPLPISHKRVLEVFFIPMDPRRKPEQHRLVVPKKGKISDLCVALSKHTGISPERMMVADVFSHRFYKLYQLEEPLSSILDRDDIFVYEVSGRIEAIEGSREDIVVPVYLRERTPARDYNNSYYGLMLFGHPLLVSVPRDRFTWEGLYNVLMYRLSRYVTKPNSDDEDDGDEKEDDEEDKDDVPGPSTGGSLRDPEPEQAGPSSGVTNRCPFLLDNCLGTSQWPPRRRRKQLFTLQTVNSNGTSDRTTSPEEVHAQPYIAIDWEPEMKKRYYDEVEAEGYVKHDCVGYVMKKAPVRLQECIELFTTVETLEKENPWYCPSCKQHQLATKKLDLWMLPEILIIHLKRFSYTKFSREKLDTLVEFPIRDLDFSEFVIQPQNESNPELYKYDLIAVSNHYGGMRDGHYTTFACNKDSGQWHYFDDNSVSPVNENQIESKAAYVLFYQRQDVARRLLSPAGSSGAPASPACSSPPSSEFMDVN

koff [1]: 0.0038 s⁻¹
Kd [2]: 160 nM
B1: scTGP USP11-C3, purified protein (scFv, V domains shown)
VH: QVQLVQSGAEVKKPGSSVKVSCKASGGTFSSYAISWVRQAPGQGLEWMGGIIPIFGTANYAQKFQGRVTITADESTSTAYMELSSLRSEDTAVYYCAREGGIGLSGWLDPWGQGTLVTVSS
VL: EIVLTQSPGTLSLSPGERATLFCRASQSVSSNLAWYQQKPGQAPRLLIYGASTRATGIPARFSGSGSGTEFTLTISSLQSEDFAVYYCQQYDDWPLTFGGGTKVDIK

koff [1]: 0.00089 s⁻¹
Kd [2]: 48 nM
B2: scTGP USP11-B6, purified protein (scFv, V domains shown)
VH: B1 VH with Q65L
VL: EIVMTQTPGTLCLSPGERATLSCRASQSVSNNNLAWYQQKPGQAPRLLIFGASNRATGIPDRFSGSGSGTDFTLTISSLQSEDFAVYYCQQYDSWPLTFGGGTKLEIK

— paper PMC9956592 (2023)
